{
  "source": "paper PMC5454392",
  "about": "“Selective BET bromodomain inhibition as an antifungal therapeutic strategy” (Nature Communications, 2017)",
  "binders": {"B1": {"name": "H3 16-35 (peptide)", "chain": "PRKQLATKAARK(Me2)[pS]APATGG"}, "B2": {"name": "H4 1-19 (peptide)", "chain": "SGRGKGGKGLGKGGAKRHR", "modifications": "S G Rme2a G Kac G G K G L G K G G A K R H R"}, "B3": {"name": "H3 1-19 (peptide)", "chain": "ARTKQTARKSTGGKAPRKQ", "modifications": "A R T Kac Q T A Rme2s Kme2 S T G G K A P R K Q"}, "B4": {"name": "H3 1-19 (peptide)", "chain": "ARTKQTARKSTGGKAPRKQ", "modifications": "A Rme2s T Kac Q T A Rme2a Kme3 S T G G K A P R K Q"}, "B5": {"name": "H3 1-19 (peptide)", "chain": "ARTKQTARKSTGGKAPRKQ", "modifications": "A Rme2s T Kme1 Q T A Rme2s Kac S T G G K A P R K Q"}, "B6": {"name": "H3 1-19 (peptide)", "chain": "ARTKQTARKSTGGKAPRKQ", "modifications": "A R T Kac Q T A Rme2a Kac S T G G K A P R K Q"}, "B7": {"name": "H2a 1-19 (peptide)", "chain": "[pS]GRGKQGGKARAK(Ac)AKSRSS"}, "B8": {"name": "H3 1-19 (peptide)", "chain": "ART[Lys(Me3)]QTARKSTGGKAPRKQ"}, "B9": {"name": "H3 1-19 (peptide)", "chain": "ARTKQTARKSTGGKAPRKQ", "modifications": "A R T K Q T A R K pS T G G K A P R K Q"}, "B10": {"name": "H3 1-19 (peptide)", "chain": "ARTKQTARKSTGGKAPRKQ", "modifications": "A Rme2s T Kac Q T A R Kme3 S T G G K A P R K Q"}, "B11": {"name": "H3 16-35 (peptide)", "chain": "PRKQLATKAARK(Ac)[pS]APATGG"}, "B12": {"name": "H3 16-35 (peptide)", "chain": "PRKQLATKAAR(Me2a)K(Me)[pS]APATGG", "modifications": "reading uncertain"}, "B13": {"name": "H3 1-19 (peptide)", "chain": "ARTKQTARKSTGGKAPRKQ", "modifications": "A R T K Q T A R K pS T G G Kac A P R K Q"}, "B14": {"name": "H2a 1-19 (peptide)", "chain": "SGRGKQGGK(Ac)ARAKAKSRSS"}, "B15": {"name": "H3 1-19 (peptide)", "chain": "A[Arg(Me2a)][pT][Lys(Me3)]QTARKSTGGKAPRKQ"}, "B16": {"name": "H3 1-19 (peptide)", "chain": "AR(Me2s)TK(Me)QTAR(Me2a)K(Me)STGGKAPRKQ", "modifications": "reading uncertain"}, "B17": {"name": "H3 1-19 (peptide)", "chain": "ARTKQTARKSTGGKAPRKQ", "modifications": "A Rme2s T Kac Q T A Rme2a Kac S T G G K A P R K Q"}, "B18": {"name": "H3 1-19 (peptide)", "chain": "ARTKQTARKSTGGKAPRKQ", "modifications": "A R T K Q T A Rme2s Kme2 S pT G G K A P R K Q"}, "B19": {"name": "H3 16-35 (peptide)", "chain": "PRKQLATKAAR(Me2a)K(Ac)[pS]APATGG", "modifications": "reading uncertain"}, "B20": {"name": "H3 1-19 (peptide)", "chain": "A[Arg(Me2a)]T[Lys(Me)]QTAR[Kac]STGGKAPRKQ"}, "B21": {"name": "H4 1-19 (peptide)", "chain": "SGRGKGGKGLGKGGAKRHR", "modifications": "S G Rme2s G Kac G G Kac G L G Kac G G A K R H R"}, "B22": {"name": "H3 16-35 (peptide)", "chain": "PRKQLATKAAR(Me2s)KSAPATGG"}, "B23": {"name": "H3 1-19 (peptide)", "chain": "ARTKQTA[Arg(Me2a)][Lys(Me)]S[pT]GGKAPRKQ"}, "B24": {"name": "H2a 1-19 (peptide)", "chain": "[pS]GRGKQGGK(Ac)ARAK(Ac)AKSRSS"}, "B25": {"name": "H2B 1-19 (peptide)", "chain": "PDPAK(Ac)SAPAPKKGSKKAVT"}, "B26": {"name": "H3 1-19 (peptide)", "chain": "ARTK(Me)QTAR(me2s)K(Me)STGGKAPRKQ"}, "B27": {"name": "H3 1-19 (peptide)", "chain": "ARTKQTARKSTGGKAPRKQ", "modifications": "A Rme2s pT Kme3 Q T A R K S T G G K A P R K Q"}, "B28": {"name": "H3 1-19 (peptide)", "chain": "AR(me2s)TK(Me)QTARKSTGGKAPRKQ"}, "B29": {"name": "H2B 1-19 (peptide)", "chain": "PDPAKSAPAPKKG[pS]KKAVT"}, "B30": {"name": "H3 1-19 (peptide)", "chain": "AR(me2a)TK(me2)QTAR(me2a)K(Me)STGGKAPRKQ", "modifications": "reading uncertain"}, "B31": {"name": "H3 1-19 (peptide)", "chain": "A[Arg(Me2s)]TK(Ac)QTA[Arg(Me2a)][Lys(Me)]STGGKAPRKQ"}, "B32": {"name": "H3 1-19 (peptide)", "chain": "ARTKQTARKSTGGKAPRKQ", "modifications": "A Rme2a T Kme3 Q T A Rme2a Kme3 S T G G K A P R K Q"}, "B33": {"name": "H3 1-19 (peptide)", "chain": "ARTKQTARKSTGGKAPRKQ", "modifications": "A R T K Q T A Rme2s Kme1 S pT G G K A P R K Q"}, "B34": {"name": "H4 1-19 (peptide)", "chain": "SGRGKGGKGLGKGGAKRHR", "modifications": "S G Rme2a G Kac G G Kac G L G Kac G G A K R H R"}, "B35": {"name": "H3 16-35 (peptide)", "chain": "PRKQLATKAARKSAPATGG", "modifications": "P R K Q L A T K A A Rme2a Kme3 S A P A T G G"}, "B36": {"name": "H2a 1-19 (peptide)", "chain": "SGRGK(Ac)QGGKARAK(Ac)AKSRSS"}, "B37": {"name": "H3 1-19 (peptide)", "chain": "ARTKQTARKSTGGKAPRKQ", "modifications": "A R T Kme2 Q T A Rme2s Kac S T G G K A P R K Q"}, "B38": {"name": "H4 1-19 (peptide)", "chain": "SGRGKGGKGLGKGGAKRHR", "modifications": "S G Rme2a G K G G Kac G L G K G G A K R H R"}, "B39": {"name": "H3 1-19 (peptide)", "chain": "A[Arg(Me2s)]T[Lys(Me)]QTA[Arg(Me2a)][Lys(Me3)]STGGKAPRKQ"}},
  "note": "Numbered stars: 1 amine (or outer) side, 2 acyl side, 3 side chain; on linkers, the order of the positions; unused ones are H or OH. Square brackets hold non-standard residues; d marks the D form. Ends that are not written are not given here. Arg(Me2a) = CN(C)C(=N)NCCC[C@H](N)C(=O)O; Kac = CC(=O)NCCCC[C@H](N[*:1])C(=O)[*:2]; Lys(Me3) = C[N+](C)(C)CCCC[C@H](N)C(=O)O; Arg(Me2s) = CN=C(NC)NCCC[C@H](N)C(=O)O; pT = C[C@@H](OP(=O)(O)O)[C@H](N)C(=O)O; pS = N[C@@H](COP(=O)(O)O)C(=O)O; Lys(Me) = CNCCCC[C@H](N)C(=O)O; Me2a = not defined here; me2a = not defined here",
  "data": [
    {"target": "T1, CaBdf1 BD2 (GST-tagged, wild-type) (Candida albicans (strain SC5314 / ATCC …, UniProt Q5A4W8))", "T1 chain": "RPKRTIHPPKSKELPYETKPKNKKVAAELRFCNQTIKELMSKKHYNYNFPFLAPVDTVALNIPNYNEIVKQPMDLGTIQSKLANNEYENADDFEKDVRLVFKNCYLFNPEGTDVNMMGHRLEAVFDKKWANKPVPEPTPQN", "assay": "histone peptide array (Active Motif MODified), 1 uM GST-tagged bromodomain, anti-GST detection, normalized mean intensity", "values": [
      {"binder": "B1", "binding score": 0.00074},
      {"binder": "B2", "binding score": 0.00703},
      {"binder": "B3", "binding score": 0.00296},
      {"binder": "B4", "binding score": 0.00407},
      {"binder": "B5", "binding score": 0.00555},
      {"binder": "B6", "binding score": 0.0126},
      {"binder": "B7", "binding score": 0.02},
      {"binder": "B8", "binding score": 0.00148},
      {"binder": "B9", "binding score": 0.00074},
      {"binder": "B10", "binding score": 0.00259},
      {"binder": "B11", "binding score": 0.00148},
      {"binder": "B12", "binding score": 0.00703},
      {"binder": "B13", "binding score": 0.0107},
      {"binder": "B14", "binding score": 0.00814},
      {"binder": "B15", "binding score": 0.00074},
      {"binder": "B16", "binding score": 0.00222},
      {"binder": "B17", "binding score": 0.00851},
      {"binder": "B18", "binding score": 0.00259},
      {"binder": "B19", "binding score": 0.00222},
      {"binder": "B20", "binding score": 0.00592},
      {"binder": "B21", "binding score": 0.332},
      {"binder": "B22", "binding score": 0.0037},
      {"binder": "B23", "binding score": 0.00259},
      {"binder": "B24", "binding score": 0.00592},
      {"binder": "B25", "binding score": 0},
      {"binder": "B26", "binding score": 0.00592},
      {"binder": "B27", "binding score": 0.00185},
      {"binder": "B28", "binding score": 0.00037},
      {"binder": "B29", "binding score": 0.00148},
      {"binder": "B30", "binding score": 0.00629},
      {"binder": "B31", "binding score": 0.00296},
      {"binder": "B32", "binding score": 0.00333},
      {"binder": "B33", "binding score": 0.00407},
      {"binder": "B34", "binding score": 0.375},
      {"binder": "B35", "binding score": 0.00703},
      {"binder": "B36", "binding score": 0.0859},
      {"binder": "B37", "binding score": 0.00592},
      {"binder": "B38", "binding score": 0.0074},
      {"binder": "B39", "binding score": 0.00592}
    ]},
    {"target": "T2, CaBdf1 BD1 (GST-tagged, wild-type) (Candida albicans (strain SC5314 / ATCC …, UniProt Q5A4W8))", "T2 chain": "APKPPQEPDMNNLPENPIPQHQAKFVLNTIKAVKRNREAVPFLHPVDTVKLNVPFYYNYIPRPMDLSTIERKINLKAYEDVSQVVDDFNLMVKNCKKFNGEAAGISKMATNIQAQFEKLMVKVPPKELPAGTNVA", "assay": "histone peptide array (Active Motif MODified), 1 uM GST-tagged bromodomain, anti-GST detection, normalized mean intensity", "values": [
      {"binder": "B1", "binding score": 0.0029},
      {"binder": "B2", "binding score": 0.0105},
      {"binder": "B3", "binding score": 0.00363},
      {"binder": "B4", "binding score": 0.00471},
      {"binder": "B5", "binding score": 0.0344},
      {"binder": "B6", "binding score": 0.0464},
      {"binder": "B7", "binding score": 0.0906},
      {"binder": "B8", "binding score": 0.00399},
      {"binder": "B9", "binding score": 0.00181},
      {"binder": "B10", "binding score": 0.00616},
      {"binder": "B11", "binding score": 0.0029},
      {"binder": "B12", "binding score": 0.0029},
      {"binder": "B13", "binding score": 0.0301},
      {"binder": "B14", "binding score": 0.0276},
      {"binder": "B15", "binding score": 0.00725},
      {"binder": "B16", "binding score": 0.00435},
      {"binder": "B17", "binding score": 0.0573},
      {"binder": "B18", "binding score": 0.00906},
      {"binder": "B19", "binding score": 0.0058},
      {"binder": "B20", "binding score": 0.0359},
      {"binder": "B21", "binding score": 0.175},
      {"binder": "B22", "binding score": 0.00616},
      {"binder": "B23", "binding score": 0.00471},
      {"binder": "B24", "binding score": 0.0642},
      {"binder": "B25", "binding score": 0.00363},
      {"binder": "B26", "binding score": 0.00689},
      {"binder": "B27", "binding score": 0.00363},
      {"binder": "B28", "binding score": 0.00326},
      {"binder": "B29", "binding score": 0.00326},
      {"binder": "B30", "binding score": 0.00363},
      {"binder": "B31", "binding score": 0.00834},
      {"binder": "B32", "binding score": 0.00399},
      {"binder": "B33", "binding score": 0.0029},
      {"binder": "B34", "binding score": 0.236},
      {"binder": "B35", "binding score": 0.00363},
      {"binder": "B36", "binding score": 0.109},
      {"binder": "B37", "binding score": 0.0305},
      {"binder": "B38", "binding score": 0.0218},
      {"binder": "B39", "binding score": 0.0058}
    ]}
  ]
}
